Read-outs that look alike come from different tables or passages of the source. Blank lines part the entries; values can stand above or below the binder they belong to.
Tests used:
[1] = biological target: T1, Variant BAv1-12-Ig (human, UniProt P01859-1 99-326 = IgG part); experiment: BIACORE SPR
T1 construct: domain: Fc; also called Variant 1-12-Ig
Excerpt: (§1) The standard kinetic assay measures binding kinetics of trimeric ligand (e.g., human BAFF, cynomolgus monkey APRIL, mouse BAFF, or mouse APRIL) coated on sensor chips and dimeric analytes (e.g., variant BCMA-Ig fusion proteins) in the mobile phase. […] For human BAFF, cynomolgus monkey APRIL, and mouse APRIL measurements, mouse monoclonal antibody (IgG1) anti-FLAG M2 (Sigma Aldrich, Cat. No. F1804) was immobilized on CM3 sensor chips (GE Healthcare, Cat. No. BR-1005-41) according to the manufacturer's protocol. Antibody was diluted to 30 μg/ml in immobilization buffer (10 mM pH 5±0.20; GE Healthcare; GE Healthcare, Catalog No. BR-1003-51). […] Unreacted sites were quenched with 35 μl of 1M ethanolamine-HCl, pH 8.5 (GE Healthcare, GE Healthcare, Cat. No. BR-1000-50). This procedure typically yielded 3,000-4,000 response units (RU) of coupled antibody.
(§2) The fusion polypeptides were diluted in HBS-EP buffer and flowed over ligand-coated sensor chips. The variant BCMA-Ig and surrogate control fusion proteins were injected at three concentrations (1.5 nM, 15 nM, and 150 nM at 30 μl/min for 2 minutes per association phase) in a single binding cycle, followed by a 20 minute incubation with HBS-EP buffer containing no protein at the same flow rate. A similar protocol was followed for Z-TACI-Ig, except that the injections were at 4.5 nM, 45 nM, and 450 nM.
(§3) The analyses described above were performed on protein preparations of representative variant BCMA ECD-Ig fusion polypeptides, as well as the Z-TACI-Ig and [S40G]huBCMA ECD-Ig control fusion polypeptides, and the data is presented in Table 1.

[2] = biological target: T2, Variant BAv9-5-Ig (human, UniProt P01859-1 99-326 = IgG part); experiment: BIACORE SPR
T2 construct: domain: Fc; also called Variant 9-5-Ig; BAv9-5-PIg18
T2 sequence (P01859 other isoform, or with tags, fused parts or gaps mutant limits assumed): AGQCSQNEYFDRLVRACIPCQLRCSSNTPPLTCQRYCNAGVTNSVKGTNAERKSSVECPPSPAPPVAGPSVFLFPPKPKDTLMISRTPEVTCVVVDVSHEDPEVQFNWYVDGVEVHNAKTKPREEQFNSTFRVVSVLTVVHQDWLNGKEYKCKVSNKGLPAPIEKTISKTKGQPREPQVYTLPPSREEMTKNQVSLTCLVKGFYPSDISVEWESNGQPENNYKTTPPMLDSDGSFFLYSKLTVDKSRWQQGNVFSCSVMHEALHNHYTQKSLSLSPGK
Excerpt: as §1, §2, §3

[3] = biological target: T3, Variant 50238475-Ig (human, UniProt P01859-1 99-326 = IgG part); experiment: BIACORE SPR
T3 construct: domain: Fc; also called Parent 9; Variant 50238475-PIg18
T3 sequence (P01859 other isoform, or with tags, fused parts or gaps mutant limits assumed): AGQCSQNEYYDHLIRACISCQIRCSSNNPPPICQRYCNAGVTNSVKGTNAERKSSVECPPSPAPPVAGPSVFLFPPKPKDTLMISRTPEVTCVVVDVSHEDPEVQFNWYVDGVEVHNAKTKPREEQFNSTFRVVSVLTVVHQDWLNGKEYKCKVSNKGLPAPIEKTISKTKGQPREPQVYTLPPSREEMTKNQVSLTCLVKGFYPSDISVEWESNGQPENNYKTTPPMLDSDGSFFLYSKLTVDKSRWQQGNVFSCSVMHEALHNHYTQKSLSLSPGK
Excerpt: as §1, §2, §3

[4] = biological target: T4, BAv66-Ig (human, UniProt P01859-1 99-326 = IgG part); experiment: BIACORE SPR
T4 construct: domain: Fc; also called Variant BAv66-Ig
T4 sequence (P01859 other isoform, or with tags, fused parts or gaps limits assumed): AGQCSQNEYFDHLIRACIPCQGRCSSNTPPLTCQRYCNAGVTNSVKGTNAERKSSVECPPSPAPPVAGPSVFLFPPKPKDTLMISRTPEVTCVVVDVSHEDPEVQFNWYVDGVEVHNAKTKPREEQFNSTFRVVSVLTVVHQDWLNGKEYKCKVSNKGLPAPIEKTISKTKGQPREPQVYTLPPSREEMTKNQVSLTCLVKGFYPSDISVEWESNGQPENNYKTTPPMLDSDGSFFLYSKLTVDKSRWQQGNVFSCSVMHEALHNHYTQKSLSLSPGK
Excerpt: as §1, §2, §3

[5] = biological target: T5, Variant BAv9-1-Ig (human, UniProt P01859-1 99-326 = IgG part); experiment: BIACORE SPR
T5 construct: domain: Fc; also called Variant 9-1-Ig; BAv9-1-pIg18
T5 sequence (P01859 other isoform, or with tags, fused parts or gaps mutant limits assumed): as the sequence (P01859 other isoform, or with tags, fused parts or gaps limits assumed) above, with G22L counted along it
Excerpt: as §1, §2, §3

[6] = biological target: T6, Variant BAv3-10-Ig (human, UniProt P01859-1 99-326 = IgG part); experiment: BIACORE SPR
T6 construct: domain: Fc; also called Variant 3-10-Ig; BAv3-10-PIg18
T6 sequence (P01859 other isoform, or with tags, fused parts or gaps mutant limits assumed): as the sequence (P01859 other isoform, or with tags, fused parts or gaps limits assumed) above, with H12R, G22L counted along it
Excerpt: as §1, §2, §3

[7] = biological target: T7, Variant BAv8-9-Ig (human, UniProt P01859-1 99-326 = IgG part); experiment: BIACORE SPR
T7 construct: domain: Fc; also called Variant 8-9-Ig; BAv8-9-PIg18
T7 sequence (P01859 other isoform, or with tags, fused parts or gaps mutant limits assumed): as the sequence (P01859 other isoform, or with tags, fused parts or gaps limits assumed) above, with I14L, G22L counted along it
Excerpt: as §1, §2, §3

[8] = biological target: T8, Variant BAv11-6-Ig (human, UniProt P01859-1 99-326 = IgG part); experiment: BIACORE SPR
T8 construct: domain: Fc; also called Variant 11-6-Ig; BAv11-6-PIg18
T8 sequence (P01859 other isoform, or with tags, fused parts or gaps mutant limits assumed): as the sequence (P01859 other isoform, or with tags, fused parts or gaps limits assumed) above, with H12R, I14L, G22V counted along it
Excerpt: as §1, §2, §3

[9] = biological target: T9, Variant BAv8-10-Ig (human, UniProt P01859-1 99-326 = IgG part); experiment: BIACORE SPR
T9 construct: domain: Fc; also called Variant 8-10-Ig; BAv8-10-PIg18
T9 sequence (P01859 other isoform, or with tags, fused parts or gaps mutant limits assumed): as the sequence (P01859 other isoform, or with tags, fused parts or gaps limits assumed) above, with I14L, G22V counted along it
Excerpt: as §1, §2, §3

[10] = biological target: T10, FLAG-tagged cynomolgous APRIL (cynomolgus monkey, UniProt A0ACM8R0G4 110-250 (rhesus entry)); experiment: BIACORE SPR; NB = No binding
T10 construct: FLAG-tagged, expressed with TPA signal peptide; also called cyAPRIL
T10 sequence: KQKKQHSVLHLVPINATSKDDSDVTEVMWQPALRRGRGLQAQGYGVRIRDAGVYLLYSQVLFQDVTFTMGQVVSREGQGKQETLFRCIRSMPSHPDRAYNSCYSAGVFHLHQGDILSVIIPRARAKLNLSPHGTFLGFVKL
Procedure: (§4) For human BAFF, cynomolgus monkey APRIL, and mouse APRIL measurements, mouse monoclonal antibody (IgG1) anti-FLAG M2 (Sigma Aldrich, Cat. No. F1804) was immobilized on CM3 sensor chips (GE Healthcare, Cat. No. BR-1005-41) according to the manufacturer's protocol. Antibody was diluted to 30 μg/ml in immobilization buffer (10 mM pH 5±0.20; GE Healthcare; GE Healthcare, Catalog No. BR-1003-51). […] Unreacted sites were quenched with 35 μl of 1M ethanolamine-HCl, pH 8.5 (GE Healthcare, GE Healthcare, Cat. No. BR-1000-50). This procedure typically yielded 3,000-4,000 response units (RU) of coupled antibody.
as §2
(§5) Using available information from the structures and published literature, several residues in BAv8-10 were targeted for substitution with conserved as well as non-conserved residues and their effect on BAFF and APRIL binding was assessed by BIACORE.

[11] = biological target: T11, FLAG-tagged human BAFF (human, UniProt Q9Y275 134-285, limits assumed); experiment: BIACORE SPR; NB = No binding
T11 construct: used in BIACORE (Ex. 9) and KINEXA (Ex. 11); also called huBAFF
Procedure: as §4, §2, §5

[12] = biological target: T11, FLAG-tagged human BAFF; experiment: KinExA
[13] = biological target: T12, FLAG-tagged recombinant human APRIL (human, UniProt O75888 105-250); experiment: KinExA
T12 construct: KINEXA ligand; also called huAPRIL
T12 sequence: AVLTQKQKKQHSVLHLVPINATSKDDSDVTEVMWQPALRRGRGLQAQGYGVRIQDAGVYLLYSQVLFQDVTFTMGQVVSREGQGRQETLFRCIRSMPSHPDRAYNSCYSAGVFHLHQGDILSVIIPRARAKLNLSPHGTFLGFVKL

[14] = biological target: T11, FLAG-tagged human BAFF; experiment: KinExA; remark: listed apart in the source
[15] = biological target: T12, FLAG-tagged recombinant human APRIL; experiment: KinExA; remark: listed apart in the source
[16] = biological target: T11, FLAG-tagged human BAFF; experiment: KinExA; remark: listed apart in the source
Procedure: (§6) Equilibrium measurements were performed using FLAG-tagged, recombinant huBAFF and huAPRIL ligands. Fixed ligand concentrations of human BAFF or human APRIL were incubated with serial dilutions of the variant BCMA ECD-Ig fusion polypeptides, and free ligand was detected in a KINEXA 3200 Instrument. variant BCMA ECD-Ig fusion polypeptides were first diluted in equilibration buffer (1×PBS, pH 7.4, 1 mg/ml BSA) to a range of concentrations from 10 nM to 100 fM. The linear portion of the dilution series was typically 2-fold. Ligands were diluted in equilibration buffer to fixed concentrations ranging from 5 to 20 pM and then incubated with the variant BCMA-Ig dilutions in total reaction volumes ranging from 4.5 to 15 ml. Samples were incubated at room temperature for 48-72 hours to reach equilibrium. For each data point, a fresh column of 850 μl of bead slurry coated with Variant BAv-238475-Ig was introduced into the KINEXA flow cell. Equilibrated samples ranging from 1 to 5 ml reaction volume were injected at a flow rate of 0.25 ml/min. […] The DyLight 649 fluorescent signal was detected using the red filter set (620/30 nanometer excitation filter, 670/40 nanometer emission filter, 645 nanometer dichroic filter) on the KinExA instrument and converted to a voltage signal that was directly proportional to the concentration of free ligand in the equilibrated sample.
(§7) The various fusion proteins described above were expressed and purified as described previously (Examples 2 and 3 for the CET1019AS based plasmids and Examples 7 and 8 for the pcDNA based plasmids). […] The BAv9-1-Ig Fc proteins typically exist in solution as a dimeric fusion protein. The purified fusion proteins were assayed for binding activity using BIACORE (Example 9) and KINEXA (Example 11) assays.

[17] = biological target: T12, FLAG-tagged recombinant human APRIL; experiment: KinExA; remark: listed apart in the source
Procedure: as §6, §7

[18] = biological target: T10, FLAG-tagged cynomolgous APRIL; experiment: BIACORE SPR
Procedure: as §4, §2, §7

[19] = biological target: T11, FLAG-tagged human BAFF; experiment: BIACORE SPR
Procedure: as §4, §2, §7

T1 sequence (P01859 other isoform, or with tags, fused parts or gaps mutant limits assumed): as the sequence (P01859 other isoform, or with tags, fused parts or gaps limits assumed) above, with H12R, I14V, R15N, G22L counted along it

B1: 6HIS-tagged murine BAFF (ligand, mouse, UniProt Q9WU72 127-309, looked up)
chain: AFQGPEETEQDVDLSAPPAPCLPGCRHSQHDDNGMNLRNIIQDCLQLIADSDTPTIRKGTYTFVPWLLSFKRGNALEEKENKIVVRQTGYFFIYSQVLYTDPIFAMGHVIQRKKVHVFGDELSLVTLFRCIQNMPKTLPNNSCYSAGIARLEEGDEIQLAIPRENAQISRNGDDTFFGALKLL
notes: also called mBAFF; muBAFF
Kd [1]: 33.9 pM
Kd [2]: 21.6 pM
Kd [3]: 26.4 pM
Kd [4]: 62.3 pM
Kd [5]: 15 pM
Kd [6]: 14.9 pM
Kd [7]: 14.9 pM
Kd [8]: 18.1 pM
Kd [9]: 17.1 pM

B2: BAv54-Ig (Fc fusion)
chain: AGQCSQNEYFDHLSRACIPCQVRCSSNTPPLTCQRYCNAGVTNSVKGTNA
notes: not shown: PIg18: human IgG2 Fc, Ser at Fc positions 4, 5, 11 (native Cys)
binding result [10]: no binding (tested: 150 nM)
binding result [11]: no binding (tested: 150 nM)

B3: BAv85-Ig (Fc fusion)
chain: AGQCSQNEYFDHLVRACIPCQARCSSNTPPLTCQRYCNAGVTNSVKGTNA
notes: also called BAv85 (2)-Ig; BAv85-pIg18; not shown: PIg18: human IgG2 Fc, Ser at Fc positions 4, 5, 11 (native Cys)
Kd [12]: 0.0847 pM
fold improvement over control [12]: 2660 fold
Kd [13]: 132 pM
fold improvement over control [13]: 0.0012 fold
Selectivity for huBAFF (KD APRIL/KD BAFF) [14]: 1560 ratio
Selectivity for huAPRIL (KD BAFF/KD APRIL) [15]: 0.001 ratio
Kd [16]: 0.085 pM
Kd [17]: 132 pM
Kd [18]: 773 pM
Kd [19]: 8.03 pM

B10: BAv83-Ig (Fc fusion)
chain: AGQCSQNEYFDPLVRACIPCQIRCSSNTPPLTCQRYCNAGVTNSVKGTNA
notes: also called BAv83 (2)-Ig; BAv83-pIg18; not shown: PIg18: human IgG2 Fc, Ser at Fc positions 4, 5, 11 (native Cys)
Kd [12]: 0.254 pM
fold improvement over control [12]: 890 fold
Kd [13]: 114 pM
fold improvement over control [13]: 0.0014 fold
Selectivity for huBAFF (KD APRIL/KD BAFF) [14]: 449 ratio
Selectivity for huAPRIL (KD BAFF/KD APRIL) [15]: 0.002 ratio
Kd [16]: 0.254 pM
Kd [17]: 114 pM
Kd [18]: 707 pM
Kd [19]: 8.09 pM

More lines, now with the values ahead:

binding result [10]: no binding (tested: 150 nM)
binding result [11]: no binding (tested: 150 nM)
B4: BAv68-Ig (Fc fusion)
chain: AGQCSQNEYFDSLIRACQPCQVRCSSNTPPLTCQRYCNAGVTNSVKGTNA
notes: as for B2

binding result [10]: no binding (tested: 150 nM)
binding result [11]: no binding (tested: 150 nM)
B5: BAv70-Ig (Fc fusion)
chain: AGQCSQNEYFDHLIRACQPCQLRCSSNTPPLTCQRYCNAGVTNSVKGTNA
notes: as for B2

binding result [10]: no binding (tested: 150 nM)
binding result [11]: no binding (tested: 150 nM)
B6: BAv67-Ig (Fc fusion)
chain: AGQCSQNEYFDSLVRACQPCQVRCSSNTPPLTCQRYCNAGVTNSVKGTNA
notes: as for B2

binding result [10]: no binding (tested: 150 nM)
binding result [11]: no binding (tested: 150 nM)
B7: BAv77-Ig (Fc fusion)
chain: AGQCSQNEYFDHLVRACIPCQVTCSSNTPPLTCQRYCNAGVTNSVKGTNA
notes: as for B2

binding result [10]: no binding (tested: 150 nM)
binding result [11]: no binding (tested: 150 nM)
B8: BAv69-Ig (Fc fusion)
chain: AGQCSQNEYFDHLVRACQPCQLRCSSNTPPLTCQRYCNAGVTNSVKGTNA
notes: as for B2

binding result [10]: no binding (tested: 150 nM)
binding result [11]: no binding (tested: 150 nM)
B9: BAv76-Ig (Fc fusion)
chain: AGQCSQNEYFDHLIRACIPCQVTCSSNTPPLTCQRYCNAGVTNSVKGTNA
notes: as for B2
